Laboratory results from publication PMC3469657, “De novo GTP Biosynthesis Is Critical for Virulence of the Fungal Pathogen Cryptococcus neoformans” (PLoS Pathogens, 2012).

How the values were obtained:
[1] = system: NC(=O)c1ccc[n+]([C@@H]2O[C@H](COP(=O)([O-])OP(=O)(O)OC[C@H]3O[C@@H](n4cnc5c(N)ncnc54)[C@H](O)[C@@H]3O)[C@@H](O)[C@H]2O)c1; assay: purified protein; conditions: IMP NAD+ site; substrate inhibition attributed to an E-XMP*•NAD+ complex; varied: cofactor
[2] = target: T1, CgImd1 (IMP dehydrogenase, CgIMPDH, VGIV) (Cryptococcus bacillisporus, UniProt E3P6S3); assay: NADH production at […] nm, tight-binding inhibition fits; format: biochemical
T1 construct: gene IMD1; recombinant CgImd1 expressed in E. coli
T1 sequence (E3P6S3 entry or part of it): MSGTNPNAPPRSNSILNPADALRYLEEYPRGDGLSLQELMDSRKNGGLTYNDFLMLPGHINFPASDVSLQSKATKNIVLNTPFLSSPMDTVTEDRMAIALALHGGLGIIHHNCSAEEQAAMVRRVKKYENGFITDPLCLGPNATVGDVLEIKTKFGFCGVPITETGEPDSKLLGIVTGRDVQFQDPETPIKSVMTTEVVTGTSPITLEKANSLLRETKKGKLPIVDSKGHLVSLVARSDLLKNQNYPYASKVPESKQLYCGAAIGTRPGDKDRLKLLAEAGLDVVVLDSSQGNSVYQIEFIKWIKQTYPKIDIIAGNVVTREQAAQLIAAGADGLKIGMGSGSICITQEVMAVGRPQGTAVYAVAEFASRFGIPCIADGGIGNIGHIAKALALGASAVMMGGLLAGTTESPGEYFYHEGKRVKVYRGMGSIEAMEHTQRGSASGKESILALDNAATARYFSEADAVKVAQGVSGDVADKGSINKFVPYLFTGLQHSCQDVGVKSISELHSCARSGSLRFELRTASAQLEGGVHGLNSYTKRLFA

[3] = target: T2, CnImd1 (IMP dehydrogenase, CnIMPDH, VNI) (Cryptococcus neoformans, UniProt J9VET5); assay: crystal structure with IMP and MPA; steady-state kinetics (tight-binding uncompetitive vs NAD+); format: biochemical
T2 construct: gene CNAG_00441; recombinant, 544 residues; 395 residues modelled per monomer
T2 sequence (J9VET5 entry or part of it): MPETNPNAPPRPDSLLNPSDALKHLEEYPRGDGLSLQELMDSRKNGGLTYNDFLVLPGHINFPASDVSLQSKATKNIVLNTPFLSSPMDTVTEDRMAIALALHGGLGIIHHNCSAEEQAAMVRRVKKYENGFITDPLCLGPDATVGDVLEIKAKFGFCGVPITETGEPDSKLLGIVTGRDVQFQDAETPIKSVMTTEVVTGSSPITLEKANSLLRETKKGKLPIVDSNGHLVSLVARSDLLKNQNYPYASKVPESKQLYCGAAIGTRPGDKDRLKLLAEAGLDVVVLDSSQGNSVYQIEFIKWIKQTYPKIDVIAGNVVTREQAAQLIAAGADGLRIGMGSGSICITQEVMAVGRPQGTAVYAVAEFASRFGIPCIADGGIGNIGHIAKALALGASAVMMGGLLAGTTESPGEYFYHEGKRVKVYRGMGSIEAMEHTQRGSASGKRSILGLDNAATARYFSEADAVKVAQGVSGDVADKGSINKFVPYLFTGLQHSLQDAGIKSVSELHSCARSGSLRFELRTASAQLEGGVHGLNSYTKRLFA

Row | Compound | Km [1] | Ki [2] | Ki [3]
1 | CnImd1 (IMP dehydrogenase, CnIMPDH, VNI) (Cryptococcus neoformans H99) | 634 ± 97 µM |  | 
2 | CgImd1 (IMP dehydrogenase, CgIMPDH, VGIV) (Cryptococcus bacillisporus) | 532 ± 65 µM |  | 
3 | COc1c(C)c2c(c(O)c1C/C=C(\C)CCC(=O)O)C(=O)OC2 [MPA, mycophenolic acid] |  | 96 ± 5 nM | 240 ± 18 nM
